Target: Epitope-tagged recombinant LOX-1 protein (NM002543, aa 61-273, 6xHis); pcDNA4, Igk secretion signal; secreted … (UniProt P78380 61-273)
Test: SPR (Biacore), FVa immobilised on the chip, LOX-1 0-400 nM flowed; equilibrium (Req) analysis
Experimental: Note that the Igκ secretion signal was obtained by pSecTag/FRT/V5-HisTOPO (Invitrogen). […] The surface plasmon resonance was performed using Biacore (manufactured by GE Healthcare, Inc.).

B1: Human Factor Va (HCVA-0110, Haematologic Technologies Inc.) (other)
H chain: AQLRQFYVAAQGISWSYRPEPTNSSLNLSVTSFKKIVYREYEPYFKKEKPQSTISGLLGPTLYAEVGDIIKVHFKNKADKPLSIHPQGIRYSKLSEGASYLDHTFPAEKMDDAVAPGREYTYEWSISEDSGPTHDDPPCLTHIYYSHENLIEDFNSGLIGPLLICKKGTLTEGGTQKTFDKQIVLLFAVFDESKSWSQSSSLMYTVNGYVNGTMPDITVCAHDHISWHLLGMSSGPELFSIHFNGQVLEQNHHKVSAITLVSATSTTANMTVGPEGKWIISSLTPKHLQAGMQAYIDIKNCPKKTRNLKKITREQRRHMKRWEYFIAAEEVIWDYAPVIPANMDKKYRSQHLDNFSNQIGKHYKKVMYTQYEDESFTKHTVNPNMKEDGILGPIIRAQVRDTLKIVFKNMASRPYSIYPHGVTFSPYEDEVNSSFTSGRNNTMIRAVQPGETYTYKWNILEFDEPTENDAQCLTRPYYSDVDIMRDIASGLIGLLLICKSRSLDRRGIQRAADIEQQAVFAVFDENKSWYLEDNINKFCENPDEVKRDDPKFYESNIMSTINGYVPESITTLGFCFDDTVQWHFCSVGTQNEILTIHFTGHSFIYGKRHEDTLTLFPMRGESVTVTMDNVGTWMLTSMNSSPRSKKLRLKFRDVKCIPDDDEDSYEIFEPPESTVMATRKMHDRLEPEDEESDADYDYQNRLAAALGIR
L chain: SNNGNRRNYYIAAEEISWDYSEFVQRETDIEDSDDIPEDTTYKKVVFRKYLDSTFTKRDPRGEYEEHLGILGPIIRAEVDDVIQVRFKNLASRPYSLHAHGLSYEKSSEGKTYEDDSPEWFKEDNAVQPNSSYTYVWHATERSGPESPGSACRAWAYYSAVNPEKDIHSGLIGPLLICQKGILHKDSNMPMDMREFVLLFMTFDEKKSWYYEKKSRSSWRLTSSEMKKSHEFHAINGMIYSLPGLKMYEQEWVRLHLLNIGGSQDIHVVHFHGQTLLENGNKQHQLGVWPLLPGSFKTLEMKASKPGWWLLNTEVGENQRAGMQTPFLIMDRDCRMPMGLSTGIISDSQIKASEFLGYWEPRLARLNNGGSYNAWSVEKLAAEFASKPWIQVDMQKEVIITGIQTQGAKHYLKSCYTTEFYVAYSSNQINWQIFKGNSTRNVMYFNGNSDASTIKENQFDPPIVARYIRISPTRAYNRPTLRLELQGCEVNGCSTPLGMENGKIENKQITASSFKKSWWGDYWEPFRARLNAQGRVNAWQAKANNNKQWLEIDLLKIKKITAIITQGCKSLSSEMYVKSYTIHYSEQGVEWKPYRLKSSMVDKIFEGNTNTKGHVKNFFNPPIISRFIRVIPKTWNQSIALRLELFGCDIY
modifications: Two-chain, plasma-derived glycoprotein. The H and L chains are held together non-covalently through Ca2+. Glycosylation and tyrosine sulfation are not carried by the letters.
notes: also called FVa
- Kd: 22.1 nM

Source: US20180186877A1 (NATIONAL CEREBRAL AND CARDIOVASCULAR CENTER, published 2018)
